System: MS2 coat protein
Assay: apparent KD of MS2 coat protein; designed switch direction (-1 OFF switch, 1 ON switch): -1; higher = weaker reporter binding
How it was run: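 Designed RNA switches with common flanks were made on Illumina chips by stalled E. coli RNA polymerase. Titration with SNAP-549-labelled MS2 coat protein doubled from 0.7 or 1.5 nM up to 3 µM. Apparent KD is each design's median over clusters after curve-fitting normalised fluorescence.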

[1] = Eterna round: R95, input ligand: FMN 200 uM
[2] = Eterna round: R95, input ligand: microRNA oligo, concentration not stated
[3] = Eterna round: R95, input ligand: none
[4] = input ligand: microRNA oligo, concentration not stated

| Sequence | apparent KD of MS2 coat protein (input ligand: FMN 200 uM) [µM] | apparent KD of MS2 coat protein (input ligand: none) [µM] | apparent KD of MS2 coat protein [1] [µM] | apparent KD of MS2 coat protein [2] [µM] | apparent KD of MS2 coat protein [3] [µM] | apparent KD of MS2 coat protein [4] [µM] |
| --- | --- | --- | --- | --- | --- | --- |
| GGCGGACAUGAGGAUCACCCAUGUCAGGAUAUGGUGCGAUCGUCGAUAGACGAUAGCACCAGAAGGGACACGCC [Mat - Exclusion 1 - Eli Mod - D1] (Eterna round: R97, puzzle: Exclusion 1) | 0.0222 | 0.0198 | – | – | – | – |
| GGCGGGACAGGAUAUCUAGCACUAAACAUGAGGAUCACCCAUGUGGUGGUCGCAGGUGUCAGAGAAGGGUCAAAAG [Atenabe] (puzzle: Exclusion 5) | – | – | 0.193 | 0.616 | 1.48 | – |
| GGCGUCGUGUAGGAUAUGAAUUGAAAGGCUUCGUCAGAAGGGCACACAUGAGGAUCACCCAUGUGACAGCUGAG [Eternabot (L1) Solution 78] (Eterna round: R97, puzzle: Exclusion 6) | 0.02 | 0.0199 | – | – | – | – |
| GGGAGGAGUGUAGGAUAUCCGACAAUCCUGUCAGGAGAAGGGCACCCUACUUGAGGAUCACCCAAGUCUCCGGGUGCUCAAGAA [Mutated MS2 EX1.15] (Eterna round: R96, puzzle: Exclusion NG 1) | 0.00933 | 0.0132 | – | – | – | 0.00822 |
| GGGAGUGAAGGAUAUACAUGAGGAUCACCCAUGUGGGAGGAGAGAGGUGAGGAGGCUGGUAGAAGGUCAGGAUG [JR_Exclusion3_Sub006] (puzzle: Exclusion 3) | – | – | – | 0.0483 | – | – |
| GGGCUCGGAGGAUAUACAAUCUCGGGCUGAAAGGCUCGGGUACAUGAGGAUCACCCAUGUAGAAGGUCGGGCUC [-30.2, -27.6 kcal A 24%, 4bis,4] (Eterna round: R97, puzzle: Exclusion 2) | 0.026 | 0.0159 | – | – | – | – |
| GGGCUGCGACACAGCCAAACAAAACAUGAGGAUCACCCAUGUCAGGAUAUACCGAUGCAGCAUCUGUAGAAGGGACAGAUCCAA [Lalaon] (Eterna round: R96, puzzle: Exclusion NG 3) | 0.151 | 0.0797 | – | – | – | 0.0688 |
| GGGCUGUCAGGAUAUACAUGAGGAUCACCCAUGUCGAGCUAUGAUAGGGCAAGAGUAGGUAGAAGGGACGAGAG [JR_Exclu3_Sub043] (puzzle: Exclusion 3) | – | – | 0.0437 | 0.0326 | 0.0327 | – |
| GGGCUGUCAGGAUAUGGGCCCGGGCCCGAAAGGGUUUGGGCCCAGAAGGGACAUGAGGAUCACCCAUGUGGCCC [-43.8, -42.8 kcal, A 20%, 5b-0] (Eterna round: R97, puzzle: Exclusion 4) | 0.0342 | 0.0345 | – | – | – | – |
| GGGUAGUGAGGAUAUCGUUGUUAGGAGGAGAAGGUAGGAGGCGAGAAGGCACAUGAGGAUCACCCAUGUAUGAG [JR_Exclu4_Sub064] (puzzle: Exclusion 4) | – | – | – | 0.0269 | – | – |
| GGGUCACAUGAGGAUCACCCAUGUGAGGAUAUGAUACUAUGUACUUCGGUACAUAGUAUCAGAAGGCACAUAAA [Ex1-3: 18] (puzzle: Exclusion 1) | – | – | – | 0.0366 | – | – |
| GGGUGUCCAGUGAGGAUAUCCAGCGCUCAGGCGCAGGAGAAGGCACAUGAGGAUCACCCAUGUAGCUGAAGAAA [Geenra] (puzzle: Brourd's mod of Exclusion 4) | – | – | 0.116 | 0.0309 | 0.0417 | – |
| GGUACUCAAAGAGUACCAAUACGAACAUGAGGAUCACCCAUGUAGGAUAUGCUACUCAAAGAGUAGCAGAAGGAUAUGAACCCU [Far Half Aptamer v8] (Eterna round: R96, puzzle: Exclusion NG 3) | 0.0331 | 0.0263 | – | – | – | 0.0168 |
| GGUAGUAUGAGUAGUCCUCAUUGAAGAGAGUGGUAAGAAACAUGAGGAUCACCCAUGUAAGAACAAGCUUUUGCUCA [JR_Sv3TOV2_Sub005] (puzzle: Sensor v3, turn-off variant 2) | – | – | 0.191 | 0.0159 | 0.266 | – |
| GGUAUACAUGAGGAUCACCCAUGUCAGGAUAUGGAAACAUAUGCCGAAAGGCAUAUGGCCAGAAGGGACAAUAG [AK-MS2ROC-r4-exclusion1-5.1] (Eterna round: R97, puzzle: Exclusion 1) | 0.117 | 0.0775 | – | – | – | – |
| GGUCAAGAACAGCUCCGCGCUGUCCUUGACCGCUCAUUUACAUGAGGAUCACCCAUGUUUUUUGCUUGUCUUGUUUC [Estetexequ] (puzzle: Sensor v3, turn-off variant 2) | – | – | 0.021 | 0.0987 | 0.0238 | – |
| GGUCAAGGACAGAUCCGCGCUGCCCUUGACCGCUCAUUUACAUGAGGAUCACCCAUGUUUUUUGCUUGUCUUGUUAC [Erbete] (puzzle: Sensor v3, turn-off variant 2) | – | – | 0.0162 | 0.094 | 0.0181 | – |
| GGUCAGACGGUAGGAUAUCCAUAUCGAGUGACCCUUUCAUAACAUGAGGAUCACCCAUGUCGGUGGGAGAAGGGCUGUACGGCG [salish99_ExNG02_R04_002] (Eterna round: R96, puzzle: Exclusion NG 2) | 0.0458 | 0.0356 | – | – | – | 0.0226 |
| GGUCCUUCUGUCAGGAUAUCCAGUAUCAGACAGCAGGAGAAGGGACAUGAGGAUCACCCAUGUAAUAAGAAGAA [Onrean] (Eterna round: R97, puzzle: Brourd's mod of Exclusion 4) | 0.0519 | 0.0276 | – | – | – | – |
| GGUCGACAUGAGGAUCACCCAUGUCAGGAUAUCGUCACUGGAGCUGCGGCUCCAGUGACGAGAAGGGAUAUAAU [E1/15-A3] (Eterna round: R97, puzzle: Exclusion 1) | 0.0453 | 0.0388 | – | – | – | – |
| GGUCUACAUGAGGAUCACCCAUGUAAGGAUAUCGUCACUGGAGCUGCGGCUCCAGUGACGAGAAGGUACGUAAU [E1/12-A3] (Eterna round: R97, puzzle: Exclusion 1) | 0.0337 | 0.0324 | – | – | – | – |
| GGUCUACAUGAGGAUCACCCAUGUAAGGAUAUCGUCACUGGAGCUGCGGCUCCAGUGACGAGAAGGUGCAUAAU [E1/11-A3] (Eterna round: R97, puzzle: Exclusion 1) | 0.0394 | 0.0308 | – | – | – | – |
| GGUCUGCGAGGAUAUACAUGAGGAUCACCCAUGUGAGAGAUACUAGUGAGGUCGAUUGGUAGAAGGCGCGGACG [JL-ex3-2.03 salish99 mod] (puzzle: Exclusion 3) | – | – | 0.0131 | 0.124 | 0.115 | – |
